In patent US11672826:
Where two headings read alike, the source gives them in different places. One block for each substance: values may come before it.

How the values were obtained:
Experiment in all cases: cell-based or functional assay
IL-21R on B9 cells = target: IL-21R on B9 cells
TGFβ1 (R&D systems) [1] = target: TGFβ1 (R&D systems) (UniProt P01137)
TGFβ1 (R&D systems) [2] = target: TGFβ1 (R&D systems) (UniProt P01137); remark: listed apart in the source
[3] = target: IL2Rβ and common γ chain on 32Dβ cells
IL2Rαβγ on CTLL2 cells = target: IL2Rαβγ on CTLL2 cells
[4] = target: IL2Rβ and common γ chain on 32Dβ cells; remark: listed apart in the source
[5] = target: IL2Rβ and common γ chain on 32Dβ cells; remark: listed apart in the source

Chain of TGFβ1 (R&D systems) (P01137 279-390 limits assumed): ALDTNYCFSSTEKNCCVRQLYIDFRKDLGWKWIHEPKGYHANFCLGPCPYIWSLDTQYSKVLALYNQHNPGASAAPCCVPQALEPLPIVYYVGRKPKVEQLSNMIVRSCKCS
Chain of Human recombinant TGFβRII/Fc (P37173 24-159): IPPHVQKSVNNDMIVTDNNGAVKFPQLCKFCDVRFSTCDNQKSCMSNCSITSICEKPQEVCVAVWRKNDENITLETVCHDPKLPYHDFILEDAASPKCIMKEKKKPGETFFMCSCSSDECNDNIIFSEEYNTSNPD

EC50 of B9 cell proliferation (WST1) (IL-21R on B9 cells): 72.5 nM
Substance: recombinant IL-21 (from UniProt Q9HBE4 32-162) (ligand)

IC50, TGFβ1 activity in HEK-Blue TGFβ reporter cells (TGFβ1 (R&D systems) [1]): 0.461 nM
IC50, TGFβ1 activity in HEK-Blue TGFβ reporter cells (TGFβ1 (R&D systems) [2]): 0.559 nM
Substance: Human recombinant TGFβRII/Fc (from UniProt P37173 24-159) (Fc fusion)

EC50 of 32Dβ cell proliferation (WST1) [3]: 0.14 nM
EC50 of CTLL-2 cell proliferation (WST1) (IL2Rαβγ on CTLL2 cells): 0.548 nM
Substance: recombinant IL-2 (from UniProt P60568 21-153) (ligand)

EC50 of 32Dβ cell proliferation (WST1) [3]: 0.0016 nM
EC50 of CTLL2 cell proliferation (PrestoBlue) (IL2Rαβγ on CTLL2 cells): 0.00495 nM
EC50 of CTLL2 cell proliferation (WST1) (IL2Rαβγ on CTLL2 cells): 0.00622 nM
EC50 of 32Dβ cell proliferation (WST1) [4]: 0.0166 nM
EC50 of 32Dβ cell proliferation (WST1) [5]: 0.0106 nM
Substance: recombinant IL-15 (from UniProt P40933 49-162) (ligand)
